Test results taken from publication PMC5534435, “The Amyloid Precursor Protein Is a Conserved Receptor for Slit to Mediate Axon Guidance” (eNeuro, 2017).

Target: T1, Rat Robo1 tagged with the hemagglutinin (Robo1-HA) (rat, UniProt O55005 26-1651)
T1 construct: Roundabout homolog 1 (Robo1), rat; The sentence with the Kd calls it Robo2, the methods name only rat Robo1-HA; also called Robo-HA; HA-Robo; source: HEK293, transfected
Test: binding of alkaline phosphatase-tagged ligand to transfected cells; HEK293 cells transfected with FL APP or HA-Robo incubated with serial dilutions of supernatants with AP-tagged Slit2 and 1 μg/ml heparin, 2 h at 37°C; AP activity in cell lysates; Hill equation, Scatchard plot
Conditions: partners not purified

T1 sequence (O55005 26-1651): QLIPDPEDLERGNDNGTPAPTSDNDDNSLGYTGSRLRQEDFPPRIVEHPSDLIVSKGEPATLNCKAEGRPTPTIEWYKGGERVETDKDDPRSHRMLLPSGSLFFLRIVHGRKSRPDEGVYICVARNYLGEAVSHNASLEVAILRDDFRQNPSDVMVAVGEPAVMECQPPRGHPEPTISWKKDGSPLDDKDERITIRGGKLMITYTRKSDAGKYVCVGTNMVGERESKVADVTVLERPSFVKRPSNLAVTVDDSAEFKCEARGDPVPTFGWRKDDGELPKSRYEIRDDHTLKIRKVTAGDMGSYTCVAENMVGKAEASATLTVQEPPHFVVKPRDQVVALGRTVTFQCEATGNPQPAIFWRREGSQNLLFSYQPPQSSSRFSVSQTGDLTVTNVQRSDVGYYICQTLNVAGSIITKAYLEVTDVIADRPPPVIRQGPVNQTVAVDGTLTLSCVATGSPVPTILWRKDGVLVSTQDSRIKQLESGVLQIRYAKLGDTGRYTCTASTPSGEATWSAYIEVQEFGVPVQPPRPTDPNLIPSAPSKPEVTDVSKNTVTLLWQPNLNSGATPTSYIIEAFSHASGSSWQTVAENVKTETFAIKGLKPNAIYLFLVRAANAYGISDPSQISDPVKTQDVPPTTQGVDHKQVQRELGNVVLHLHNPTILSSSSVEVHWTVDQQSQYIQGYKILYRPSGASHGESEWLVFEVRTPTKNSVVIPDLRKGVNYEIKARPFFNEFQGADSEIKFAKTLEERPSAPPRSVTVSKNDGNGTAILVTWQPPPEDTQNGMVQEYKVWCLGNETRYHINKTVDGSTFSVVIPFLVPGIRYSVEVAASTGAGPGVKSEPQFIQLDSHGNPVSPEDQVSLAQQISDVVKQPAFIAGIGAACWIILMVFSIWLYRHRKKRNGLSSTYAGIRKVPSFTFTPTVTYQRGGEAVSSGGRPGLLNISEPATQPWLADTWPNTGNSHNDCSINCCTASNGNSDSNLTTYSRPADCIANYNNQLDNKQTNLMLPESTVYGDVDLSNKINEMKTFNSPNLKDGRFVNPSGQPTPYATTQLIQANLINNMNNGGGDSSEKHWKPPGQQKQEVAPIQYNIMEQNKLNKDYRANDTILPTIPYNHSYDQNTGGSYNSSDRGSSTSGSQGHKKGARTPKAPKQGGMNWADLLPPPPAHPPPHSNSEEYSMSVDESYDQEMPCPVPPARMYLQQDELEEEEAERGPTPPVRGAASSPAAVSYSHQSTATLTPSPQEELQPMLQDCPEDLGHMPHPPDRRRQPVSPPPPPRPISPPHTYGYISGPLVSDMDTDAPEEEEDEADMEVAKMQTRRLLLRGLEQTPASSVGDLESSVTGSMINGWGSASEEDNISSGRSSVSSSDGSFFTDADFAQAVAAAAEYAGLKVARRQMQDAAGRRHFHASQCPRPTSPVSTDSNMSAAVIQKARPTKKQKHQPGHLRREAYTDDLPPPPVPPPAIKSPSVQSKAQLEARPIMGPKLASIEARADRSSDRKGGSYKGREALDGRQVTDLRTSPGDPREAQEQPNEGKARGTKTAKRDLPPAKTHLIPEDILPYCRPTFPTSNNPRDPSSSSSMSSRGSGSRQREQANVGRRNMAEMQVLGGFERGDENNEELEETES

B1: FL Slit2 fused N terminally to the human alkaline phosphatase sequence (ligand, UniProt O94813 31-1529, looked up)
chain: QCSCSGSTVDCHGLALRSVPRNIPRNTERLDLNGNNITRITKTDFAGLRHLRVLQLMENKISTIERGAFQDLKELERLRLNRNHLQLFPELLFLGTAKLYRLDLSENQIQAIPRKAFRGAVDIKNLQLDYNQISCIEDGAFRALRDLEVLTLNNNNITRLSVASFNHMPKLRTFRLHSNNLYCDCHLAWLSDWLRQRPRVGLYTQCMGPSHLRGHNVAEVQKREFVCSGHQSFMAPSCSVLHCPAACTCSNNIVDCRGKGLTEIPTNLPETITEIRLEQNTIKVIPPGAFSPYKKLRRIDLSNNQISELAPDAFQGLRSLNSLVLYGNKITELPKSLFEGLFSLQLLLLNANKINCLRVDAFQDLHNLNLLSLYDNKLQTIAKGTFSPLRAIQTMHLAQNPFICDCHLKWLADYLHTNPIETSGARCTSPRRLANKRIGQIKSKKFRCSAKEQYFIPGTEDYRSKLSGDCFADLACPEKCRCEGTTVDCSNQKLNKIPEHIPQYTAELRLNNNEFTVLEATGIFKKLPQLRKINFSNNKITDIEEGAFEGASGVNEILLTSNRLENVQHKMFKGLESLKTLMLRSNRITCVGNDSFIGLSSVRLLSLYDNQITTVAPGAFDTLHSLSTLNLLANPFNCNCYLAWLGEWLRKKRIVTGNPRCQKPYFLKEIPIQDVAIQDFTCDDGNDDNSCSPLSRCPTECTCLDTVVRCSNKGLKVLPKGIPRDVTELYLDGNQFTLVPKELSNYKHLTLIDLSNNRISTLSNQSFSNMTQLLTLILSYNRLRCIPPRTFDGLKSLRLLSLHGNDISVVPEGAFNDLSALSHLAIGANPLYCDCNMQWLSDWVKSEYKEPGIARCAGPGEMADKLLLTTPSKKFTCQGPVDVNILAKCNPCLSNPCKNDGTCNSDPVDFYRCTCPYGFKGQDCDVPIHACISNPCKHGGTCHLKEGEEDGFWCICADGFEGENCEVNVDDCEDNDCENNSTCVDGINNYTCLCPPEYTGELCEEKLDFCAQDLNPCQHDSKCILTPKGFKCDCTPGYVGEHCDIDFDDCQDNKCKNGAHCTDAVNGYTCICPEGYSGLFCEFSPPMVLPRTSPCDNFDCQNGAQCIVRINEPICQCLPGYQGEKCEKLVSVNFINKESYLQIPSAKVRPQTNITLQIATDEDSGILLYKGDKDHIAVELYRGRVRASYDTGSHPASAIYSVETINDGNFHIVELLALDQSLSLSVDGGNPKIITNLSKQSTLNFDSPLYVGGMPGKSNVASLRQAPGQNGTSFHGCIRNLYINSELQDFQKVPMQTGILPGCEPCHKKVCAHGTCQPSSQAGFTCECQEGWMGPLCDQRTNDPCLGNKCVHGTCLPINAFSYSCKCLEGHGGVLCDEEEDLFNPCQAIKCKHGKCRLSGLGQPYCECSSGYTGDSCDREISCRGERIRDYYQKQQGYAACQTTKKVSRLECRGGCAGGQCCGPLRSKRRKYSFECTDGSSFVDEVEKVVKCGCTRCVS
notes: Slit2, full length, put in place of Netrin 5 in the vector Ntn5.a-AP-His (Addgene); also called AP-tagged Slit2; alkaline phosphatase (AP)-tagged Slit2; source: HEK293T, transfected, in supernatant; not shown: alkaline phosphatase (human), C-terminal, kept
  Kd: 19.6 nM
